The source of these data is patent US20070232789A1 (UNIVERSITY OF MARYLAND BALTIMORE, published 2007).

Assay [1] concerns the target T1, A1/A3-C1-C2 heterodimer of factor VIII, plasma-derived (human, UniProt P00451 20-391; P00451 1709-2351).
T1 sequence 1: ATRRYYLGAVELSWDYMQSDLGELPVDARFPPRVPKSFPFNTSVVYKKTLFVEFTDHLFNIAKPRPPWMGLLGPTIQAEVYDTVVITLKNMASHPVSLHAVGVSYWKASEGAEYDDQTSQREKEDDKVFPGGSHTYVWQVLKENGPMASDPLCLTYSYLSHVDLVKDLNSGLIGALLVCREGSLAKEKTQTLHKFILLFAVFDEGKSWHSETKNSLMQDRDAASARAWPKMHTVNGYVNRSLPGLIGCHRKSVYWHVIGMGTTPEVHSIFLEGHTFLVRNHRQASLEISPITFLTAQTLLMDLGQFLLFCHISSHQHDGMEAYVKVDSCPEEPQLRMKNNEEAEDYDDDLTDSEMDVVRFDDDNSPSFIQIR
T1 sequence 2: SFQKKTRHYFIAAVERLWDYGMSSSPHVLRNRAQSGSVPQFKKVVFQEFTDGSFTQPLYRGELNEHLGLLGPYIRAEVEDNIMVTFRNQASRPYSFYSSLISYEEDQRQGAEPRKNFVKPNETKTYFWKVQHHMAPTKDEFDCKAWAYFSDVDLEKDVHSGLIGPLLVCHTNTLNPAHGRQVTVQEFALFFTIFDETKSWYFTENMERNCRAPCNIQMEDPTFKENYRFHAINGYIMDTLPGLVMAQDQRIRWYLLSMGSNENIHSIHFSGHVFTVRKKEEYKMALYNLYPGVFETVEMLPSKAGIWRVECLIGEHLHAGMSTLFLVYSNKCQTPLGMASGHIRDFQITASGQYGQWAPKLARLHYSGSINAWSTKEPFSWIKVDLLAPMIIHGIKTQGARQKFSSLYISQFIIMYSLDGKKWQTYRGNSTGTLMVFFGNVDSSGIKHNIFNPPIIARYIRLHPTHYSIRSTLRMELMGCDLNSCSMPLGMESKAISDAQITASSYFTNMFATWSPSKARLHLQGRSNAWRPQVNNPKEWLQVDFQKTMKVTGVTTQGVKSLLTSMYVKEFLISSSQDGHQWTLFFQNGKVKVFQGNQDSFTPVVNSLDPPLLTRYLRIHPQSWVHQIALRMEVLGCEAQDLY
The assay can be described thus: cell-based or functional assay.

The target in assay [2] is T2, low-density lipoprotein receptor-related protein (LRP), purified (human, UniProt Q07954 20-4544).
T2 construct: mature; also called low density lipoprotein receptor-related protein/α2-macroglobulin receptor; LRP receptor
The assay can be described thus: SPR, BIAcore 3000, one-site model, KD = koff/kon. From the text:
Surface plasmon resonance-based binding assay. […] This system allows real-time biomolecular interaction analysis (BIA) using surface plasmon resonance (SPR) technology. One molecule (the ligand) is usually immobilized on the surface of the sensor chip; the second molecule (the analyte) in solution is passed over the chip under conditions of continuous flow, and the amount of the bound analyte is detected by the system. SPR is a non-invasive optical measuring technique which measures the mass concentration of biomolecules in close proximity to the sensor chip where association and dissociation of biomolecular complexes occurs. […] The association (kₒₙ) and dissociation (koff) rate constants were determined using BIAevaluation Version 3.1 software. The data were corrected for bulk refraction index changes and fitted to a one-site binding model by a non-linear regression analysis Equilibrium dissociation constants (KD) were calculated from the ratio koff/kₒₙ.

T2 sequence (Q07954 20-4544, form in doubt): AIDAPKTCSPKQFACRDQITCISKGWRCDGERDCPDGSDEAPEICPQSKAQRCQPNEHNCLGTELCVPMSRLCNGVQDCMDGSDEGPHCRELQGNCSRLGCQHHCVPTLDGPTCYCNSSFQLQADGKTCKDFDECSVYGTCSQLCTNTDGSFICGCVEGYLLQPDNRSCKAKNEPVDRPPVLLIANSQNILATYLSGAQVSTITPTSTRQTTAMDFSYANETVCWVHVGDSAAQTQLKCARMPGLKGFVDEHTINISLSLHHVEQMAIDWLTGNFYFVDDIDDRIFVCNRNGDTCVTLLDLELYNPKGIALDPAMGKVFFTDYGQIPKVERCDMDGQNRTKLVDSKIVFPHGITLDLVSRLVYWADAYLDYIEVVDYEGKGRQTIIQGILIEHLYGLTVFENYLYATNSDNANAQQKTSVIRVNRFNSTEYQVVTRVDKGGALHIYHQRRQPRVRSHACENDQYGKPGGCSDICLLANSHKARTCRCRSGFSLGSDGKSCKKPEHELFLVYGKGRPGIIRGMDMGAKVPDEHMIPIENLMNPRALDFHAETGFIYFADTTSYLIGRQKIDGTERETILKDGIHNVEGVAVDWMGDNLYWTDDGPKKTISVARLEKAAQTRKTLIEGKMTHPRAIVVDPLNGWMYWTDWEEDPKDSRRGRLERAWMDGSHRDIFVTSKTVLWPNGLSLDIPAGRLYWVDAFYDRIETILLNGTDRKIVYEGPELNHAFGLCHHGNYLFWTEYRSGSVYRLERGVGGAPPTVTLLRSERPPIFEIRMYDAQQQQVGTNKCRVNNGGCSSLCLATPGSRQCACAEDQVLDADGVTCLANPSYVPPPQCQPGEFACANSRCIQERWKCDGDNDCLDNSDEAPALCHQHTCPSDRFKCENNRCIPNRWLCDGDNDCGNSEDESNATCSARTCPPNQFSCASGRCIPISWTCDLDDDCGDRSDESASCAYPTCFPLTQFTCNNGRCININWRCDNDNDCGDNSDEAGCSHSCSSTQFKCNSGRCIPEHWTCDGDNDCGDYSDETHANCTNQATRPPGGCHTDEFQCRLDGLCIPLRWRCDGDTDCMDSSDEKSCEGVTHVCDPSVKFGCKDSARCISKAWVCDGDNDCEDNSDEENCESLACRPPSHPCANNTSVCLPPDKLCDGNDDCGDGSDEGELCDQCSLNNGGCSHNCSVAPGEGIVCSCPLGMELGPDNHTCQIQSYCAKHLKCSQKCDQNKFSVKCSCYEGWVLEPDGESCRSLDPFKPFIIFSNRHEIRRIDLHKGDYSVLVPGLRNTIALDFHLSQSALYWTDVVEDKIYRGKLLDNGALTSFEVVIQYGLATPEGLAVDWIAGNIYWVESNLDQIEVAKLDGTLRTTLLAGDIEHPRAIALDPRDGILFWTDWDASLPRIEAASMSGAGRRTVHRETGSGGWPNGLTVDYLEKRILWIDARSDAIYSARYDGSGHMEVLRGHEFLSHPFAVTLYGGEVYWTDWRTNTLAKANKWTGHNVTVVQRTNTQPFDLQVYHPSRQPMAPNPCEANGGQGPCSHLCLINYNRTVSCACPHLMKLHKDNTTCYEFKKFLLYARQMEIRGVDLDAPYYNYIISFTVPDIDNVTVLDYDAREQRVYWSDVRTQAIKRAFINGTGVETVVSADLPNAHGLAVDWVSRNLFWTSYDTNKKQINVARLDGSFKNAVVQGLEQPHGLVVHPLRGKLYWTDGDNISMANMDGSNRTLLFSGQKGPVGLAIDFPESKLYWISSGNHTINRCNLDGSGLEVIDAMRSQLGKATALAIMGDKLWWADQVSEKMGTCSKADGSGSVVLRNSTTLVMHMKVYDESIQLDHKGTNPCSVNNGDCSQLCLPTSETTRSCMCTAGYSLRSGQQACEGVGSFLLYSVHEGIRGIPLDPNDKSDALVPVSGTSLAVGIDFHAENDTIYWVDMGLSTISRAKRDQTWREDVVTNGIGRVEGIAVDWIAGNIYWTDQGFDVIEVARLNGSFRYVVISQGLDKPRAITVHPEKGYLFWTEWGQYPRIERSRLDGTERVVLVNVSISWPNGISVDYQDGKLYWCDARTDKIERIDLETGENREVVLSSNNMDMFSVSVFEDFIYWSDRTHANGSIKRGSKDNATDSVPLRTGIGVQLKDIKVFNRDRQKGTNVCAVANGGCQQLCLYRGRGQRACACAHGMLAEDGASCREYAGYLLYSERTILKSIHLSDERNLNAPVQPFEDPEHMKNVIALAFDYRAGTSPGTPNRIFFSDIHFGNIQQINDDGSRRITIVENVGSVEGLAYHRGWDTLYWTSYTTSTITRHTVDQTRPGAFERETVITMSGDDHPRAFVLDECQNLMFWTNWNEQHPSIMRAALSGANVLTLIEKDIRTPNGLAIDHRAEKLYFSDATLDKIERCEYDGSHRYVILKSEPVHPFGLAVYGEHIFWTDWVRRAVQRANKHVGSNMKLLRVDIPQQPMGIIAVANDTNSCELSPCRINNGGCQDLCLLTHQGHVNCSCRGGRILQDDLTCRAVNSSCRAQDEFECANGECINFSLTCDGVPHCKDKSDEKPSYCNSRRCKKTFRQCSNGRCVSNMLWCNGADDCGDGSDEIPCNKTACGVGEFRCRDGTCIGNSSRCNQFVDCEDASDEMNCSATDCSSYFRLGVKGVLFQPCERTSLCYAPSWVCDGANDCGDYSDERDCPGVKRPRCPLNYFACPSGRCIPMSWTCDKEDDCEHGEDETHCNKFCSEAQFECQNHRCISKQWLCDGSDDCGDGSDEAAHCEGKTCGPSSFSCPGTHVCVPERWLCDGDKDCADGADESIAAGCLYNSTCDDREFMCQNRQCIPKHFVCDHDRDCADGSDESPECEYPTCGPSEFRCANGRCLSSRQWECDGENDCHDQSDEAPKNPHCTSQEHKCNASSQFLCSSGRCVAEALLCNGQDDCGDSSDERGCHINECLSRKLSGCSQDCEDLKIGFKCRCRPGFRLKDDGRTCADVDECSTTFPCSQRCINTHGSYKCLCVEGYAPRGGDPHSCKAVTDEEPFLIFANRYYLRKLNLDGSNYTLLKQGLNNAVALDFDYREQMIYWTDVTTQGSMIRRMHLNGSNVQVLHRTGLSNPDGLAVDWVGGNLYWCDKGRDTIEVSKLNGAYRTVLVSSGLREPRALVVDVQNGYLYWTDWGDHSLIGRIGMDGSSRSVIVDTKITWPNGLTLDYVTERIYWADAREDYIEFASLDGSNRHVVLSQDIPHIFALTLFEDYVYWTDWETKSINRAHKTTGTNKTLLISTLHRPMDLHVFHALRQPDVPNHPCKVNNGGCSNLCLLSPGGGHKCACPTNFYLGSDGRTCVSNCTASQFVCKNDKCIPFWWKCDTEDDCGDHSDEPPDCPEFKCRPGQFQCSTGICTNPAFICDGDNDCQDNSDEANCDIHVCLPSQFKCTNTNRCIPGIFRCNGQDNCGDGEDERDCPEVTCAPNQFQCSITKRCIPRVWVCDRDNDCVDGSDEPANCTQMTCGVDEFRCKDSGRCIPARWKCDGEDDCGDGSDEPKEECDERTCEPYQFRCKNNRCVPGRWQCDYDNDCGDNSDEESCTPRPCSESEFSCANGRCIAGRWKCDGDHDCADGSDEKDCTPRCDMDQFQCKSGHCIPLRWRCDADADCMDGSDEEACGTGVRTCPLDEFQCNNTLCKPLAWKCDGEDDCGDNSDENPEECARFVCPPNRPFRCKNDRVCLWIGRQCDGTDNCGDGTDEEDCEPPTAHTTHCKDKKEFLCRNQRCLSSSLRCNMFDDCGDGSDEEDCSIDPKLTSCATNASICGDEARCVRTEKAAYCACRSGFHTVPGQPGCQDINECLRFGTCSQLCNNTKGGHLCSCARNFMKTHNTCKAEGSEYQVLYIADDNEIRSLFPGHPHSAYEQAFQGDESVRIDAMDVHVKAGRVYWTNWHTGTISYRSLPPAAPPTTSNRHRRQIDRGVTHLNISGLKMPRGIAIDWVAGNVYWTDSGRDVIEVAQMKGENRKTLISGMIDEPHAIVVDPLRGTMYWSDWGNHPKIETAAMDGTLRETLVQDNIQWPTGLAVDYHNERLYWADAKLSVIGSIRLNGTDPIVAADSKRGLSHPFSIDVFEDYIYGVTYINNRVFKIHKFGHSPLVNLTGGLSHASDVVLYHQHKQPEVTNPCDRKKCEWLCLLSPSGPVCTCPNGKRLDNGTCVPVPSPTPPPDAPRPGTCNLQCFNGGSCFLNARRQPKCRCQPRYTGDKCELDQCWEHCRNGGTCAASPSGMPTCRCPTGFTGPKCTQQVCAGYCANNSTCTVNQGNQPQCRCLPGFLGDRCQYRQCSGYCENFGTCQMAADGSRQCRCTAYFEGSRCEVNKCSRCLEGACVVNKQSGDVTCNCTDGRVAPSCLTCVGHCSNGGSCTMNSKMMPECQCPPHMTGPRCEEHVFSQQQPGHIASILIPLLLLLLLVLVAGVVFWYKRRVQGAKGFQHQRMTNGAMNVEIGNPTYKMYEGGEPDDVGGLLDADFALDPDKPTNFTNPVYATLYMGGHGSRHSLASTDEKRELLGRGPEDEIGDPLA

B1: recombinant wild-type A2 domain of human factor VIII (hx-A2) (other)
chain: SGAKKHPKTWVHYIAAEEEDWDYAPLVLAPDDRSYKSQYLNNGPQRIGRKYKKVRFMAYTDETFKTREAIQHESGILGPLLYGEVGDTLLIIFKNQASRPYNIYPHGITDVRPLYSRRLPKGVKHLKDFPILPGEIFKYKWTVTVEDGPTKSDPRCLTRYYSSFVNMERDLASGLIGPLLICYKESVDQRGNQIMSDKRNVILFSVFDENRSWYLTENIQRFLPNPAGVQLEDPEFQASNIMHSINGYVFDSLQLSVCLHEVAYWYILSIGAQTDFLSVFFSGYTFKHKMVYEDTLTLFPFSGETVFMSMENPGLWILGCHNSDFRNRGMTALLKVSSCDKNTGDYYEDSYEDISAYLLSKNNAIEPR
notes: Secreted from Sf9 cells as hx-A2 and purified on mAb 8860; Removal of the tag is not reported; also called wt-A2; recombinant A2; not shown: N-terminal hx leader (6xHis tag, vector-derived linker, factor Xa site)
As for B1, the “Activity of reconstituted FVIIIa (% of wt activity)” value (from here on “Activity … (% of wt activity)”) in assay [1] was 100 % of wt activity. In assay [2], the Kd – broadly, a measure of binding affinity in units of concentration – was found to be 21 nM.

B2: recombinant A2 mutant #9 (Ser-488 to Ala) (other)
chain: SGAKKHPKTWVHYIAAEEEDWDYAPLVLAPDDRSYKSQYLNNGPQRIGRKYKKVRFMAYTDETFKTREAIQHESGILGPLLYGEVGDTLLIIFKNQASRPYNIYPHGITDVRPLYARRLPKGVKHLKDFPILPGEIFKYKWTVTVEDGPTKSDPRCLTRYYSSFVNMERDLASGLIGPLLICYKESVDQRGNQIMSDKRNVILFSVFDENRSWYLTENIQRFLPNPAGVQLEDPEFQASNIMHSINGYVFDSLQLSVCLHEVAYWYILSIGAQTDFLSVFFSGYTFKHKMVYEDTLTLFPFSGETVFMSMENPGLWILGCHNSDFRNRGMTALLKVSSCDKNTGDYYEDSYEDISAYLLSKNNAIEPR
notes: hx-A2 form from Sf9 cells
Turning to B2, in assay [1], the “Activity … (% of wt activity)” value was 232 % of wt activity. The molecule further had a Kd in assay [2] of 67 nM.

B3: recombinant A2 mutant #13 (Lys-493 to Ala) (other)
chain: SGAKKHPKTWVHYIAAEEEDWDYAPLVLAPDDRSYKSQYLNNGPQRIGRKYKKVRFMAYTDETFKTREAIQHESGILGPLLYGEVGDTLLIIFKNQASRPYNIYPHGITDVRPLYSRRLPAGVKHLKDFPILPGEIFKYKWTVTVEDGPTKSDPRCLTRYYSSFVNMERDLASGLIGPLLICYKESVDQRGNQIMSDKRNVILFSVFDENRSWYLTENIQRFLPNPAGVQLEDPEFQASNIMHSINGYVFDSLQLSVCLHEVAYWYILSIGAQTDFLSVFFSGYTFKHKMVYEDTLTLFPFSGETVFMSMENPGLWILGCHNSDFRNRGMTALLKVSSCDKNTGDYYEDSYEDISAYLLSKNNAIEPR
notes: hx-A2 form from Sf9 cells
For the molecule B3, in assay [1], the “Activity … (% of wt activity)” value is 267 % of wt activity. In assay [2], this molecule registered a Kd of 18 nM.

B4: recombinant A2 mutant #14 (Lys-496 to Ala) (other)
chain: SGAKKHPKTWVHYIAAEEEDWDYAPLVLAPDDRSYKSQYLNNGPQRIGRKYKKVRFMAYTDETFKTREAIQHESGILGPLLYGEVGDTLLIIFKNQASRPYNIYPHGITDVRPLYSRRLPKGVAHLKDFPILPGEIFKYKWTVTVEDGPTKSDPRCLTRYYSSFVNMERDLASGLIGPLLICYKESVDQRGNQIMSDKRNVILFSVFDENRSWYLTENIQRFLPNPAGVQLEDPEFQASNIMHSINGYVFDSLQLSVCLHEVAYWYILSIGAQTDFLSVFFSGYTFKHKMVYEDTLTLFPFSGETVFMSMENPGLWILGCHNSDFRNRGMTALLKVSSCDKNTGDYYEDSYEDISAYLLSKNNAIEPR
notes: hx-A2 form from Sf9 cells
As to B4, the “Activity … (% of wt activity)” value in assay [1] was 263 % of wt activity. The molecule also gave a Kd in assay [2] of 9.5 nM.

B5: recombinant A2 mutant #1 (Lys-376 to Ala) (other)
chain: SGAAKHPKTWVHYIAAEEEDWDYAPLVLAPDDRSYKSQYLNNGPQRIGRKYKKVRFMAYTDETFKTREAIQHESGILGPLLYGEVGDTLLIIFKNQASRPYNIYPHGITDVRPLYSRRLPKGVKHLKDFPILPGEIFKYKWTVTVEDGPTKSDPRCLTRYYSSFVNMERDLASGLIGPLLICYKESVDQRGNQIMSDKRNVILFSVFDENRSWYLTENIQRFLPNPAGVQLEDPEFQASNIMHSINGYVFDSLQLSVCLHEVAYWYILSIGAQTDFLSVFFSGYTFKHKMVYEDTLTLFPFSGETVFMSMENPGLWILGCHNSDFRNRGMTALLKVSSCDKNTGDYYEDSYEDISAYLLSKNNAIEPR
notes: hx-A2 form from Sf9 cells; not shown: N-terminal hx leader (6xHis tag, vector-derived linker, factor Xa site)
Take B5: the “Activity … (% of wt activity)” value in assay [1] is 73.9 % of wt activity. In addition, in assay [2], binding was put at a Kd of 25.5 nM.

B6: recombinant A2 mutant #15 (His-497 to Ala) (other)
chain: SGAKKHPKTWVHYIAAEEEDWDYAPLVLAPDDRSYKSQYLNNGPQRIGRKYKKVRFMAYTDETFKTREAIQHESGILGPLLYGEVGDTLLIIFKNQASRPYNIYPHGITDVRPLYSRRLPKGVKALKDFPILPGEIFKYKWTVTVEDGPTKSDPRCLTRYYSSFVNMERDLASGLIGPLLICYKESVDQRGNQIMSDKRNVILFSVFDENRSWYLTENIQRFLPNPAGVQLEDPEFQASNIMHSINGYVFDSLQLSVCLHEVAYWYILSIGAQTDFLSVFFSGYTFKHKMVYEDTLTLFPFSGETVFMSMENPGLWILGCHNSDFRNRGMTALLKVSSCDKNTGDYYEDSYEDISAYLLSKNNAIEPR
notes: hx-A2 form from Sf9 cells
As to B6, the “Activity … (% of wt activity)” value in assay [1] was 242 % of wt activity. In assay [2], this molecule registered a Kd of 51 nM.

B7: recombinant A2 mutant #12 (Leu-491 to Ala) (other)
chain: SGAKKHPKTWVHYIAAEEEDWDYAPLVLAPDDRSYKSQYLNNGPQRIGRKYKKVRFMAYTDETFKTREAIQHESGILGPLLYGEVGDTLLIIFKNQASRPYNIYPHGITDVRPLYSRRAPKGVKHLKDFPILPGEIFKYKWTVTVEDGPTKSDPRCLTRYYSSFVNMERDLASGLIGPLLICYKESVDQRGNQIMSDKRNVILFSVFDENRSWYLTENIQRFLPNPAGVQLEDPEFQASNIMHSINGYVFDSLQLSVCLHEVAYWYILSIGAQTDFLSVFFSGYTFKHKMVYEDTLTLFPFSGETVFMSMENPGLWILGCHNSDFRNRGMTALLKVSSCDKNTGDYYEDSYEDISAYLLSKNNAIEPR
notes: hx-A2 form from Sf9 cells
For B7, the “Activity … (% of wt activity)” value in assay [1] is 518 % of wt activity. Further, binding in assay [2] was put at a Kd of 21 nM.

B8: recombinant A2 mutant #11 (Arg-490 to Ala) (other)
chain: SGAKKHPKTWVHYIAAEEEDWDYAPLVLAPDDRSYKSQYLNNGPQRIGRKYKKVRFMAYTDETFKTREAIQHESGILGPLLYGEVGDTLLIIFKNQASRPYNIYPHGITDVRPLYSRALPKGVKHLKDFPILPGEIFKYKWTVTVEDGPTKSDPRCLTRYYSSFVNMERDLASGLIGPLLICYKESVDQRGNQIMSDKRNVILFSVFDENRSWYLTENIQRFLPNPAGVQLEDPEFQASNIMHSINGYVFDSLQLSVCLHEVAYWYILSIGAQTDFLSVFFSGYTFKHKMVYEDTLTLFPFSGETVFMSMENPGLWILGCHNSDFRNRGMTALLKVSSCDKNTGDYYEDSYEDISAYLLSKNNAIEPR
notes: hx-A2 form from Sf9 cells
In the case of B8, the “Activity … (% of wt activity)” value in assay [1] was 151 % of wt activity. Besides, in assay [2], the Kd was 59 nM.

B9: recombinant A2 mutant #17 (Lys-510 to Ala) (other)
chain: SGAKKHPKTWVHYIAAEEEDWDYAPLVLAPDDRSYKSQYLNNGPQRIGRKYKKVRFMAYTDETFKTREAIQHESGILGPLLYGEVGDTLLIIFKNQASRPYNIYPHGITDVRPLYSRRLPKGVKHLKDFPILPGEIFAYKWTVTVEDGPTKSDPRCLTRYYSSFVNMERDLASGLIGPLLICYKESVDQRGNQIMSDKRNVILFSVFDENRSWYLTENIQRFLPNPAGVQLEDPEFQASNIMHSINGYVFDSLQLSVCLHEVAYWYILSIGAQTDFLSVFFSGYTFKHKMVYEDTLTLFPFSGETVFMSMENPGLWILGCHNSDFRNRGMTALLKVSSCDKNTGDYYEDSYEDISAYLLSKNNAIEPR
notes: as for B5
In the case of B9, the “Activity … (% of wt activity)” value in assay [1] is 91.5 % of wt activity. In assay [2], the Kd was 29 nM.

B10: recombinant A2 mutant #16 (His-499 to Ala as printed in Tables 1 and 2; Lys^499 in the text) (other)
chain: SGAKKHPKTWVHYIAAEEEDWDYAPLVLAPDDRSYKSQYLNNGPQRIGRKYKKVRFMAYTDETFKTREAIQHESGILGPLLYGEVGDTLLIIFKNQASRPYNIYPHGITDVRPLYSRRLPKGVKHLADFPILPGEIFKYKWTVTVEDGPTKSDPRCLTRYYSSFVNMERDLASGLIGPLLICYKESVDQRGNQIMSDKRNVILFSVFDENRSWYLTENIQRFLPNPAGVQLEDPEFQASNIMHSINGYVFDSLQLSVCLHEVAYWYILSIGAQTDFLSVFFSGYTFKHKMVYEDTLTLFPFSGETVFMSMENPGLWILGCHNSDFRNRGMTALLKVSSCDKNTGDYYEDSYEDISAYLLSKNNAIEPR
notes: hx-A2 form from Sf9 cells; also called Lys^499 Ala mutant; not shown: N-terminal hx leader (6xHis tag, vector-derived linker, factor Xa site)
As for B10, the “Activity … (% of wt activity)” value in assay [1] is 128 % of wt activity. Besides, the Kd in assay [2] came to 33 nM.
